These results are taken from EP3801029B1 (Morehouse School of Medicine, dated 2024).

Test [1] concerns the target T1, Mortalin (UniProt P38646 47-679).
T1 construct: Endogenous protein from Jurkat cells (a human cell line); also called Glucose-regulated protein 75; GRP75
Description: peptide pull-down from Jurkat cell lysate, Western blot.

Test [2] concerns the target T2, E. coli DnaK protein (Escherichia coli, UniProt P0A6Y8 2-638).
T2 construct: Endogenous protein from E. coli lysate; also called heat shock protein 70; Hsp70
Briefly: ANTI-FLAG M2 pull-down from E. coli lysate, Western blot with anti-DnaK antibody. A general note: In western blotting, separated proteins are transferred to a membrane and probed.

In test [3] the target is T1, Mortalin. Description: peptide pull-down from Jurkat cell lysate, Western blot with anti-mortalin antibody.

T1 sequence (P38646 47-679 limits assumed): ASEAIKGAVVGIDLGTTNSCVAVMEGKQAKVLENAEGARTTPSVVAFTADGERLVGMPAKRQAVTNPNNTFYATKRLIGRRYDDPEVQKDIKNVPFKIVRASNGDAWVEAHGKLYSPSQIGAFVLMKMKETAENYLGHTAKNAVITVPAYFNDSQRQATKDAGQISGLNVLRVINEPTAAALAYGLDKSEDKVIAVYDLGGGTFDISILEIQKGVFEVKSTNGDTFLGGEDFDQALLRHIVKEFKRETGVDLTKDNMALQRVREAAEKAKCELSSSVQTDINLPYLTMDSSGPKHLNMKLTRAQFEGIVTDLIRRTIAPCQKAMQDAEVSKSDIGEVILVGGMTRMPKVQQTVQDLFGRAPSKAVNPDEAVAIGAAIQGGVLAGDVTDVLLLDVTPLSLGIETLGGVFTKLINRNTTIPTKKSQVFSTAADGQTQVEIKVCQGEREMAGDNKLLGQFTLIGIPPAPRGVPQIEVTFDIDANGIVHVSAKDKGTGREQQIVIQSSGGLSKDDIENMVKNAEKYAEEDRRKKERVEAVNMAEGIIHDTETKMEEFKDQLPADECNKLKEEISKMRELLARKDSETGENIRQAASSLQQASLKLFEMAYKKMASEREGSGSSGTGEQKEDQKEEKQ
T2 sequence (P0A6Y8 2-638 limits assumed): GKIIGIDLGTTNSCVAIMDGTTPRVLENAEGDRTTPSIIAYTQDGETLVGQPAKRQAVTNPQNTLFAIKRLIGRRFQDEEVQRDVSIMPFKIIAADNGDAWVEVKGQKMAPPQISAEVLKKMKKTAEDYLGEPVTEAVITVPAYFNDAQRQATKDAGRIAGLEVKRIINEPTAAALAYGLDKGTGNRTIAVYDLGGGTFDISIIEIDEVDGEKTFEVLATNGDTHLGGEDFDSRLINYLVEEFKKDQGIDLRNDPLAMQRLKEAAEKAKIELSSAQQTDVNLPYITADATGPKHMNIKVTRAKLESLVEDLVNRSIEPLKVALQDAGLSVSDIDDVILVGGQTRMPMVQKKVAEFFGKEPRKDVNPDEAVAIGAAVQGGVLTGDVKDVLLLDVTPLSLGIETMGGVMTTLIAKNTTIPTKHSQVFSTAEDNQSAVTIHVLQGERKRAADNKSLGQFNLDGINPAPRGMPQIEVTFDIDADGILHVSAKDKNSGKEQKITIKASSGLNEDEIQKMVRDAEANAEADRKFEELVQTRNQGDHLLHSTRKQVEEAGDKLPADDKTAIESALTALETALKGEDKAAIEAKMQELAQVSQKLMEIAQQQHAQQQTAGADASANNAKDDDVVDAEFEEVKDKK

Turning to VGFPVAAVGFPVDYKDDDDK (also called SMR peptide; antagonist) [synthetic HIV-1 Nef SMRwt peptide (VGFPVAAVGFPVDYKDDDDK)], the binding result in test [1] was “binds”.

B1: synthetic HIV-1 Nef SMRmut peptide (AGFPVAAAGFPVDYKDDDDK) (peptide)
peptide: AGFPVAAAGFPVDYKDDDDK
notes: also called negative control peptide; mutant SMR peptide
For B1, the binding result is on record as “no binding (tested: 1 µg peptide with 1 mg E. coli lysate)” in test [2] and “no binding” in test [3].
